Measurements taken from patent US8409836B2, “Treatment of cellulosic material and enzymes useful therein” (Roal Oy, priority 2005, dated 2013).
Values belong to the molecule of their own block, whether it stands above or below them.

Tests used:
[1] = substrate: O=[N+]([O-])c1ccc(O[C@@H]2O[C@H](CO)[C@@H](O[C@@H]3O[C@H](CO)[C@H](O)[C@H](O)[C@H]3O)[C@H](O)[C@H]2O)c(Cl)c1; assay: Michaelis-Menten kinetic constants on CNPLac; format: biochemical, Chaetomium thermophilum; conditions: other: Ct Cel7A, 50 mM sodium phosphate pH 5.7, 22° C.
Description: (§1) The Michaelis-Menten and cellobiose inhibition constants were determined from the cellobiohydrolases produced heterologously in T. reesei (Examples 14 and 15). The enzymes were purified as described in Example 2. Protein concentrations of purified enzymes were measured by their absorption at 280 nm using a theoretical molar extinction co-efficient, which were calculated from the amino acid sequences (Gill and von Hippel, 1989).
(§2) Kinetic constants (Km and kcat values) and cellobiose inhibition constant (Ki) for Tr CBHI/Cel7A, Ta CBH/Cel7A, At CBH/Cel7A and Ct CBH/Cel7A, were measured using CNPLac (2-Chloro-4-nitrophenyl-β-D-lactoside) as substrate at ambient temperature (22° C.) in 50 mM sodium phosphate buffer, pH 5.7. For the determination of the inhibition constant (Ki), eight different substrate concentrations (31-4000 μM) in the presence of a range of five inhibitor concentrations (0-100 μM or 0-400 μM), which bracket the Ki value, were used. All experiments were performed in microtiter plates and the total reaction volume was 200 μl. The initial rates were in each case measured by continuous monitoring the release of the chloro-nitrophenolate anion (CNP, 2-Chloro-4-nitrophenolate) through measurements at 405 nm using Varioscan (Thermolabsystems) microtiter plate reader. The results were calculated from CNP standard curve (from 0 to 100 μM). Enzyme concentrations used were: Tr CBHI/Cel7A 2.46 μM, Ta CBH/Cel7A 1.58 μM, Ct CBH/Cel7A 0.79 μM and At CBH/Cel7A 3 μM. The Km and kcat constants were calculated from the fitting of the Michaelis-Menten equation using the programme of Origin. Lineweaver-Burk plots, replots (LWB slope versus [Glc2; cellobiose]) and Hanes plots were used to distinguish between competitive and mixed type inhibition and to determine the inhibition constants (Ki).

[2] = pH optimum of recombinant CBH/Cel7 proteins; format: biochemical; conditions: McIlvaine buffer, pH range 3.0-8.0, MUL, 50° C., 10 min
Description: The recombinant CBH/Cel7 enzyme preparations were characterized in terms of pH optimum and thermal stability. The pH optimum of the recombinant CBH/Cel7 proteins from Thermoascus aurantiacus, Chaetomium thermophilum, and Acremonium thermophilum were determined in the universal McIlvaine buffer within a pH range of 3.0-8.0 using 4-methylumbelliferyl-β-D-lactoside (MUL) as a substrate (FIG. 3A). The pH optimum for Ct Cel7A and At Cel7A enzymes is at 5.5, above which the activity starts to gradually drop. The pH optimum of the recombinant crude Ta Cel7A is at 5.0 (FIG. 3A). Thermal stability of the recombinant Cel7 enzymes was determined by measuring the MUL activity in universal McIlvaine buffer at the optimum pH with reaction time of 1 h.

[3] = Hydrolysis with CBH enzyme mixtures, spruce; format: biochemical; conditions: additional enzymes EGII, bG; 48 h, 45° C., pH 5.0
Description: (§3) The performance of the purified recombinant cellobiohydrolases was evaluated in the hydrolysis studies with purified T. reesei enzymes. Hydrolysis was carried out with controlled mixtures of purified enzymes on several pre-treated substrates. […] In addition, pure T. reesei cellulases (purified as described by Suurnäkki et al., 2000) were used in the enzyme mixtures. The cellobiohydrolases used in the experiment were:
(§4) Each CBH/Cel7 to be tested (dosage 14.5 mg/g dry matter of substrate) was used either together with EGII/Cel5A of T. reesei (3.6 mg/g) or with a mixture containing T. reesei EGI/Cel7B (1.8 mg/g), EGII/Cel5A (1.8 mg/g), xylanase pI 9 (Tenkanen et al. 1992) (5000 nkat/g) and acetyl xylan esterase (AXE) (Sundberg and Poutanen, 1991) (250 nkat/g). All mixtures were supplemented with additional β-glucosidase from a commercial enzyme preparation Novozym 188 (176 nkat/g d.w.). Triplicate tubes containing the enzyme mixture and 10 mg (dry matter)/ml of the substrate suspended in 0.05 M sodium acetate were incubated in mixing by magnetic stirring at 45° C. for 48 h. Reference samples with inactivated enzymes and corresponding substrates were also prepared. The release of hydrolysis products was measured as reducing sugars with DNS method using glucose as standard (Table 30).
Washed steam pre-treated spruce fibre (impregnation with 3% w/w SO2 for 20 min, followed by steam pre-treatment at 215° C. for 5 min), dry matter 25.9% (SPRUCE).

[4] = Hydrolysis with CBH enzyme mixtures, Avicel; format: biochemical; conditions: additional enzymes EGII, bG; 48 h, 45° C., pH 5.0
Description: as §3, §4
Crystalline cellulose (Avicel)

[5] = Hydrolysis with CBH enzyme mixtures, corn stover; format: biochemical; conditions: additional enzymes EGII, bG, 48 h, 45° C., pH 5.0
Description: as §3, §4
Washed wet oxidized corn stover fibre (WOCS).

[6] = Hydrolysis with CBH enzyme mixtures, willow; format: biochemical; conditions: additional enzymes EGII, bG, 48 h, 45° C., pH 5.0
Description: as §3, §4
Washed steam pre-treated willow fibre (pre-treatment for 14 min at 210° C.), dry matter 23.0% (WILLOW).

[7] = substrate: O=[N+]([O-])c1ccc(O[C@@H]2O[C@H](CO)[C@@H](O[C@@H]3O[C@H](CO)[C@H](O)[C@H](O)[C@H]3O)[C@H](O)[C@H]2O)c(Cl)c1; assay: Michaelis-Menten kinetic constants on CNPLac; format: biochemical, Trichoderma reesei; conditions: other: Tr Cel7A, 50 mM sodium phosphate pH 5.7, 22° C.
Description: as §1, §2

Specific activity on MUL = format: biochemical; conditions: purified xylanase, 50° C. pH 5.0 10 min
Description: (§5) The specific activity of the preparations was determined using 4-methylumbelliferyl-β-D-lactoside (MUL), 4-methylumbelliferyl-β-D-cellobioside (MUG2) or 4-methylumbelliferyl-β-D-cellotrioside (MUG3) as substrate (van Tilbeurgh et al., 1988) in 0.05 M sodium citrate buffer pH 5 at 50° C. for 10 min. Endoglucanase and xylanase activities were determined by standard procedures (according to IUPAC, 1987) using carboxymethyl cellulose (CMC) and birch glucuronoxylan (Bailey et al., 1992) as substrates. Specific activity against Avicel was calculated on the basis of reducing sugars formed in a 24 h reaction at 50° C., pH 5.0, with 1% substrate and 0.25 μM enzyme dosage. The protein content of the purified enzyme preparations was measured according to Lowry et al., 1951. To characterize the end products of hydrolysis, soluble sugars liberated in 24 h hydrolysis experiment, as described above, were analysed by HPLC (Dionex). Purified cellobiohydrolase I (CBHI/Cel7A) of Trichoderma reesei was used as a reference.

[8] = Specific activity on MUG2; format: biochemical; conditions: purified xylanase, 50° C. pH 5.0 10 min
Description: as §5

[9] = Specific activity on MUG3; format: biochemical; conditions: purified xylanase, 50° C. pH 5.0 10 min
Description: as §5

[10] = Xylanase activity on birch xylan; format: biochemical
Description: as §5
Acremonium thermophilum ALKO4245 was grown as described in Example 1. The culture supernatant was incubated at 70° C. for 24 hours after which, it was concentrated by ultrafiltration. The pure xylanase was obtained by sequential purification with hydrophobic interaction and cation exchange chromatography followed by gel filtration. The xylanase activity was determined using birch xylan as substrate (procedure of IUPAC 1987). Protein was assayed by BioRad Protein Assay Kit (Bio-Rad Laboratories) using bovine serum albumin as standard.
Thermoascus aurantiacus ALKO4242 was grown as described in Example 1. The pure xylanase was obtained by sequential purification with hydrophobic interaction, anion, and cation exchange chromatography followed by gel filtration. The xylanase activity was determined using birch xylan as substrate (procedure of IUPAC 1987). Protein was assayed by BioRad Protein Assay Kit (Bio-Rad Laboratories) using bovine serum albumin as standard.

B1: Chaetomium thermophilum ALKO4265 cellobiohydrolase Ct Cel7A (Ct CBH/Cel7A), recombinant, SEQ ID NO: 8 (Thermochaetoides thermophila) (protein)
chain: QQACSLTAENHPSLTWKRCTSGGSCSTVNGAVTIDANWRWTHTVSGSTNCYTGNQWDTSLCTDGKSCAQTCCVDGADYSSTYGITTSGDSLNLKFVTKHQYGTNVGSRVYLMENDTKYQMFELLGNEFTFDVDVSNLGCGLNGALYFVSMDADGGMSKYSGNKAGAKYGTGYCDAQCPRDLKFINGEANVGNWTPSTNDANAGFGRYGSCCSEMDVWEANNMATAFTPHPCTTVGQSRCEADTCGGTYSSDRYAGVCDPDGCDFNAYRQGDKTFYGKGMTVDTNKKMTVVTQFHKNSAGVLSEIKRFYVQDGKIIANAESKIPGNPGNSITQEYCDAQKVAFSNTDDFNRKGGMAQMSKALAGPMVLVMSVWDDHYANMLWLDSTYPIDQAGAPGAERGACPTTSGVPAEIEAQVPNSNVIFSNIRFGPIGSTVPGLDGSNPGNPTTTVVPPASTSTSRPTSSTSSPVSTPTGQPGGCTTQKWGQCGGIGYTGCTNCVAGTTCTQLNPWYSQCL
Km [1]: 1960 µM
kcat [1]: 0.313 s⁻¹
kcat/Km [1]: 158 M⁻¹ s⁻¹

Hydrolysis products as reducing sugars, SPRUCE [3]: 2.0 mg/mL
Hydrolysis products as reducing sugars, Avicel [4]: 2.0 mg/mL
Hydrolysis products as reducing sugars, WOCS ([5]; EGI, XYL, AXE): 4.3 mg/mL
Hydrolysis products as reducing sugars, WOCS [5]: 2.8 mg/mL
Hydrolysis products as reducing sugars, WILLOW ([6]; EGI, XYL, AXE): 2.8 mg/mL
Hydrolysis products as reducing sugars, WILLOW [6]: 2.0 mg/mL
B2: Ta Cel7A: cellobiohydrolase of Thermoascus aurantiacus ALKO4242, gene Ta cel7A, amino acid SEQ ID NO: 2, no CBD (protein)
chain: MYQRALLFSFFLAAARAQQAGTVTAENHPSLTWQQCSSGGSCTTQNGKVVIDANWRWVHTTSGYTNCYTGNTWDTSICPDDVTCAQNCALDGADYSGTYGVTTSGNALRLNFVTQSSGKNIGSRLYLLQDDTTYQIFKLLGQEFTFDVDVSNLPCGLNGALYFVAMDADGGLSKYPGNKAGAKYGTGYCDSQCPRDLKFINGQANVEGWQPSANDPNAGVGNHGSCCAEMDVWEANSISTAVTPHPCDTPGQTMCQGDDCGGTYSSTRYAGTCDPDGCDFNPYRQGNHSFYGPGQIVDTSSKFTVVTQFITDDGTPSGTLTEIKRFYVQNGKVIPQSESTISGVTGNSITTEYCTAQKAAFGDNTGFFTHGGLQKISQALAQGMVLVMSLWDDHAANMLWLDSTYPTDADPDTPGVARGTCPTTSGVPADVESQYPNSYVIYSNIKVGPINSTFTAN
pH optimum [2]: 5.0

B3: Trichoderma reesei cellobiohydrolase I Tr Cel7A (Tr CBHI/Cel7A) (Trichoderma reesei RUT C-30) (protein)
chain: QSACTLQSETHPPLTWQKCSSGGTCTQQTGSVVIDANWRWTHATNSSTNCYDGNTWSSTLCPDNETCAKNCCLDGAAYASTYGVTTSGNSLSIGFVTQSAQKNVGARLYLMASDTTYQEFTLLGNEFSFDVDVSQLPCGLNGALYFVSMDADGGVSKYPTNTAGAKYGTGYCDSQCPRDLKFINGQANVEGWEPSSNNANTGIGGHGSCCSEMDIWEANSISEALTPHPCTTVGQEICEGDGCGGTYSDNRYGGTCDPDGCDWNPYRLGNTSFYGPGSSFTLDTTKKLTVVTQFETSGAINRYYVQNGVTFQQPNAELGSYSGNELNDDYCTAEEAEFGGSSFSDKGGLTQFKKATSGGMVLVMSLWDDYYANMLWLDSTYPTNETSSTPGAVRGSCSTSSGVPAQVESQSPNAKVTFSNIKFGPIGSTGNPSGGNPPGGNPPGTTTTRRPATTTGSSPGPTQSHYGQCGGIGYSGPTVCASGTTCQVLNPYYSQCL
Km [7]: 520 µM
kcat [7]: 0.0433 s⁻¹
kcat/Km [7]: 83.3 M⁻¹ s⁻¹

B4: At XYN_60: xylanase of Acremonium thermophilum ALKO4245, gene At xyn10A, amino acid SEQ ID NO: 20 (protein)
chain: MRAKQLLAAGLLAPASVSAQLNSLAVAAGLKYFGTAVREANVNGDATYMSYVNNKSEFGQVTPENGQKWDSTEPSQGQFSYSQGDIVPGVAKKNGQVLRCHTLVWYSQLPSWVSSGSWTRATLQSVIETHISNVMGHYKGQCYAWDVVNEAINDDGTWRTSVFYNTFNTDYLAIAFNAAKKADAGAKLYYNDYNLEYNGAKTNTAVQLVQIVQQAGAPIDGVGFQGHLIVGSTPSRSSLATALKRFTALGLEVAYTELDIRHSSLPPSSAALATQGNDFASVVGSCLDVAGCVGITIWGFTDKYSWVPDTFPGSGAALLYDANYSKKPAWTSVSSVLAAKATNPPGGGNPPPVTTTTTTTTTSKPSQPTTTTTTTSPQGPQQTHWGQCGGIGWTGPQSCQSPWTCQKQNDWYSQCL
Specific activity against MUL (Specific activity on MUL): 33 nkat/mg
Specific activity against MUG2 [8]: 54 nkat/mg
Specific activity against MUG3 [9]: 78 nkat/mg
Relative activity at 60° C. as compared to 50° C. ([10]; 10 min, pH 5.0): about 1.2 fold
Relative activity at 70° C. as compared to 50° C. ([10]; 10 min, pH 5.0): ~1.65 fold
Specific activity on birch xylan ([10]; purified xylanase, 50° C., procedure of IUPAC 1987): 1800 nkat/mg
